The source of these data is publication PMC4264766, “Purification, Cloning, Characterization, and N-Glycosylation Analysis of a Novel β-Fructosidase from Aspergillus oryzae FS4 Synthesizing Levan- and Neolevan-Type Fructooligosaccharides” (PLoS ONE, 2014).

Substrate in this data set: OC[C@H]1O[C@@](CO)(O[C@H]2O[C@H](CO)[C@@H](O)[C@H](O)[C@H]2O)[C@@H](O)[C@@H]1O
Description: initial rates, glucose release by glucose assay kit, confirmed by HPLC; Michaelis-Menten fit. It counts as biochemical, Aspergillus oryzae. Conditions: total activity (glucose release), 55°C, potassium phosphate buffer, 0.005–0.5 M sucrose.
Description: initial rates, glucose release by glucose assay kit, confirmed by HPLC; Michaelis-Menten fit on N.BfrA (native β-fructosidase BfrA)

B1: N.BfrA (native β-fructosidase BfrA) (Aspergillus oryzae) (protein)
chain: IDYNAAPPNLSTLANGSLYDTWRPRAHILPPNGRIGDPCGHYTDPDTGLFHVGFLYNGSGIAGATTDDMVRFRDLNPNGSQFIMPGGKNDPVAVFDGSVIPKGIDDKPTLLYTSVTSLPIHWSIPYNPGAETQSLAVTSNGGRNFTKLDRPPVIPLPPSDSDVTAFRDPYAFQSPELDAAADSAPGTWYTAISGGVHEDGPGQFLYRQDQKEMSLESWEYLGLWWQEKVNTTWGNGDWAGGWGFNFETGNVFGLNEEGYSVDGEMFMTLGTEGSGTPIVSQVSSIHDMLWAAGNVSNNGNVTFTPTMAGVFDWGASGYAAAGHILPATSQVSTKSGAPDRFISFVWLTGDLFEQAKGYPTSQQNWVGTLLLPRELHIKTISNVVDNELAREEGSSWRVERGQSGIELKTLGIDIARETREALMSGPKITEPERTSKEAGLVPFQVSPTTKFHVLTAQLSFPRSARNSDLQAGFQVLSSDLESTTIYYQFSNESIIVDRSNTSAAAKTTNGIVSTNESGRLRLFDLQGDAQEIETLDLTVVVDNSVLEIYANGRFALSTWARSWYKNSTDIKFYHNGAGEVTFSNVTVSEGLFEAWPERV
notes: native, purified from A. oryzae FS4 mycelia; N-glycosylated; 95 kDa by SDS-PAGE, monomer; CDS 1860 bp; mature 65298 Da calculated; 40 kDa contaminant band
For the protein B1, the Km was determined as 37.19 ± 5.28 mM, the Vmax was 1.28e+08 µM/min/mg, the kcat was found to be 10000 ± 390 s⁻¹ and the specificity constant (kcat/Km) came to 269000 ± 39700 M⁻¹ s⁻¹.
